Laboratory results taken from paper PMC7658486.

Molecular target: rainbow trout IL-2 (IL-2A), FLAG-tagged, from insect cells (rainbow trout (Oncorhynchus mykiss))
Test: SEC; Superose 12 column, PBS (-), 0.5 ml/min, 10-15 μg protein purified from insect cell supernatant; calibrated with standard proteins

For “rainbow trout IL-2 (IL-2A), FLAG-tagged, from insect cells (ligand)”, which stoichiometry N is on record?
Its stoichiometry N is 2.
